Measured values taken from US6413943.

What was measured:
CDK4/cyclin D1 complex = CDK4/cyclin D1 complex (UniProt P11802); experiment: cell-based or functional assay
CDK2/cyclin E = CDK2/cyclin E (UniProt P24941); experiment: in vitro kinase assay; mixture of p27 and p16
CDC2/cyclin B = CDC2/cyclin B (UniProt P06493); experiment: in vitro kinase assay; mixture of p27 and p16
CDK2/cyclin A complex = CDK2/cyclin A complex (UniProt P24941); experiment: cell-based or functional assay
CDK2/cyclin E complex = CDK2/cyclin E complex (UniProt P24941); experiment: cell-based or functional assay
CDC2/cyclin B complex = CDC2/cyclin B complex (UniProt P06493); experiment: cell-based or functional assay
Chain of CDC2/cyclin B complex (P06493 whole entry, one chain of several): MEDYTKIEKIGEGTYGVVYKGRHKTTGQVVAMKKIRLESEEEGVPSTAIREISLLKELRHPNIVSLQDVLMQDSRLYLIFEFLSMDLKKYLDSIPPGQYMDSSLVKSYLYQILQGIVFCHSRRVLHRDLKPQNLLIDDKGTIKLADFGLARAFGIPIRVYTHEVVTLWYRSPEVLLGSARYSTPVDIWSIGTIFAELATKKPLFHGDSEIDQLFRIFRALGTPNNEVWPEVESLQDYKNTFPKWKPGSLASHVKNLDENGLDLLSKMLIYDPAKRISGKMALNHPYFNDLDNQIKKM

Chain of CDK4/cyclin D1 complex (P11802 whole entry, chain 1 of 2): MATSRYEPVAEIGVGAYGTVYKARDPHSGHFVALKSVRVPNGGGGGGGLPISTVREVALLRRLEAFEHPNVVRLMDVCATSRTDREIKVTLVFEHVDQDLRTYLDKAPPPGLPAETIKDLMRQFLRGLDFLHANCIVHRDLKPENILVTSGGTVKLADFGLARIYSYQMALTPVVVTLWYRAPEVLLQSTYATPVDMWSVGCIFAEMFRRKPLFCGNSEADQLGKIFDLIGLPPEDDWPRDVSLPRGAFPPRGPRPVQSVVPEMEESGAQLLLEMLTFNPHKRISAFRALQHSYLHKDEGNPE
Chain of CDK4/cyclin D1 complex (P24385 whole entry, chain 2 of 2, further chain): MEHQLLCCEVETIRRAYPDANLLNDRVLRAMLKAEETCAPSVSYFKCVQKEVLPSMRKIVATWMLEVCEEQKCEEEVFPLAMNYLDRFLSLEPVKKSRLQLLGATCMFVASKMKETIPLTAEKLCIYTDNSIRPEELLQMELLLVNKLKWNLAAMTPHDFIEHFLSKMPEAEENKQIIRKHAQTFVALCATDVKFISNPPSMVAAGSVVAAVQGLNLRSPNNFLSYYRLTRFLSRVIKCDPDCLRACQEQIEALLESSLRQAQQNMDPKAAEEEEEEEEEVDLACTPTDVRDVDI
Chain of CDC2/cyclin B (P06493 whole entry): as the sequence (P06493 whole entry, one chain of several) above

Row | IC50, in vitro kinase activity (GST-Rb phosphorylation) (CDK4/cyclin D1 complex) | IC50 (CDK2/cyclin E) | IC50 (CDC2/cyclin B) | IC50, in vitro kinase activity (CDK2/cyclin A complex) | IC50, in vitro kinase activity (GST-Rb phosphorylation) (CDK2/cyclin E complex) | IC50, in vitro kinase activity (histone H1 phosphorylation) (CDC2/cyclin B complex) | Substance
1 | 63 nM |  |  |  |  |  | human p27 (from UniProt P46527 1-198)
2 |  | 1.7 nM | 12 nM |  |  |  | p27 + p16
3 | 25 nM |  |  | 25 nM | 30 nM | 15 nM | p27-p16 fusion protein
